Measured values taken from PMC11338831.
“And” between values parts separate entries of the source, which are not always exact repeats. Identical values can stand only once.

Legend:
[1] = biological target: SlNRC2-Twin-Strep-HA (Solanum lycopersicum (tomato)); assay: native gel or EMSA; Blue Native-PAGE (3-12% Bis-Tris) of SlNRC2-Twin-Strep-HA variants eluted from Strep-Tactin XT resin out of nrc2/3/4 N. benthamiana leaf extract; immunoblot
[2] = biological target: Solanum lycopersicum (tomato) NRC2, full-length, purified from insect cells (Solanum lycopersicum (tomato)); assay: SEC; gel filtration of purified SlNRC2 after removal of MBP; Buffer E (10 mM Tris-HCl pH 8.0, 150 mM NaCl, 1 mM dithiothreitol); Superdex 200 Increase 10/300 GL
[3] = biological target: Solanum lycopersicum (tomato) NRC2, full-length, purified from insect cells (Solanum lycopersicum (tomato)); assay: cryo-EM structure; apparently dimeric SlNRC2 specimen, 0.7 mg ml^-1; dimer at 2.84 Å and tetramer at 3.17 Å from one data set, C2 symmetry

stoichiometry N [1] | stoichiometry N [2] | stoichiometry N [3] | Substance
2 and 4 | – | – | SlNRC2-Twin-Strep-HA (natural protein)
– | 2 | 2 and 4 | Solanum lycopersicum (tomato) NRC2, full-length, purified from insect cells (natural protein)
